According to patent US20240116985A1 (published 2024):
Starred links: 1 amine or outer side, 2 acyl side, 3 side chain; linkers in the order of their positions; H or OH if unused. Positions of bridges follow the written chain, without caps; N, C: chain ends. Non-standard residues stand in square brackets, D forms with d. Primed or numbered codes have the meaning given here. B5(29) = 2-amino-2-(pent-4-en-1-yl)hept-6-enoic acid (2,2-bis(4-pentenyl)glycine), stitching residue bearing both staples, C=CCCCC(CCCC=C)(N[*:1])C(=O)[*:2]; PyrS2″ = (S)-3-amino-1-((pent-4-en-1-yloxy)carbonyl)pyrrolidine-3-carboxylic acid (stapling residue), C=CCCCOC(=O)N1CC[C@@](N[*:1])(C(=O)[*:2])C1; B5(17) = 2,2-bis(4-pentenyl)glycine = 2-amino-2-(pent-4-en-1-yl)hept-6-enoic acid, stitching residue, C=CCCCC(CCCC=C)(N[*:1])C(=O)[*:2]; B5(4) = 2,2-bis(4-pentenyl)glycine = 2-amino-2-(pent-4-en-1-yl)hept-6-enoic acid (stitching residue), C=CCCCC(CCCC=C)(N[*:1])C(=O)[*:2]; TfeGA = (S)-2-amino-3-((carboxymethyl)(2,2,2-trifluoroethyl)amino)propanoic acid, O=C([C@H](CN(CC(=O)[*:3])CC(F)(F)F)N[*:1])[*:2]; PyrS2 = (S)-3-amino-1-((pent-4-en-1-yloxy)carbonyl)pyrrolidine-3-carboxylic acid, C=CCCCOC(=O)N1CC[C@@](N[*:1])(C(=O)[*:2])C1; B5(19) = 2-amino-2-(pent-4-en-1-yl)hept-6-enoic acid (bis(4-pentenyl)glycine), C=CCCCC(CCCC=C)(N[*:1])C(=O)[*:2]; B5(3) = 2,2-bis(4-pentenyl)glycine (stitching residue), C=CCCCC(CCCC=C)(N[*:1])C(=O)[*:2]; AspSH = (S)-2-amino-4-mercapto-4-oxobutanoic acid, O=C(C[C@H](N[*:1])C(=O)[*:2])S[*:3]; B5 = 2-amino-2-(pent-4-en-1-yl)hept-6-enoic acid, C=CCCCC(CCCC=C)(N[*:1])C(=O)[*:2]; Phe(F5) = N[C@@H](Cc1c(F)c(F)c(F)c(F)c1F)C(=O)O; Phe(2-Cl) = N[C@@H](Cc1ccccc1Cl)C(=O)O; Bta = N[C@@H](Cc1csc2ccccc12)C(=O)O; hTyr = N[C@@H](CCc1ccc(O)cc1)C(=O)O; αAllylPro = C=CC[C@@]1(C(=O)O)CCCN1; tBuAla = CC(C)(C)C[C@H](N)C(=O)O; 3Thi = N[C@@H](Cc1ccsc1)C(=O)O; S8 = C=CCCCCCC[C@](C)(N)C(=O)O; PyrS2(4) = not defined here; hSer = N[C@@H](CCO)C(=O)O; Nle = CCCC[C@H](N)C(=O)O

T1: B-cat-Halo (UniProt P35222 2-781)
T1 sequence (looked up): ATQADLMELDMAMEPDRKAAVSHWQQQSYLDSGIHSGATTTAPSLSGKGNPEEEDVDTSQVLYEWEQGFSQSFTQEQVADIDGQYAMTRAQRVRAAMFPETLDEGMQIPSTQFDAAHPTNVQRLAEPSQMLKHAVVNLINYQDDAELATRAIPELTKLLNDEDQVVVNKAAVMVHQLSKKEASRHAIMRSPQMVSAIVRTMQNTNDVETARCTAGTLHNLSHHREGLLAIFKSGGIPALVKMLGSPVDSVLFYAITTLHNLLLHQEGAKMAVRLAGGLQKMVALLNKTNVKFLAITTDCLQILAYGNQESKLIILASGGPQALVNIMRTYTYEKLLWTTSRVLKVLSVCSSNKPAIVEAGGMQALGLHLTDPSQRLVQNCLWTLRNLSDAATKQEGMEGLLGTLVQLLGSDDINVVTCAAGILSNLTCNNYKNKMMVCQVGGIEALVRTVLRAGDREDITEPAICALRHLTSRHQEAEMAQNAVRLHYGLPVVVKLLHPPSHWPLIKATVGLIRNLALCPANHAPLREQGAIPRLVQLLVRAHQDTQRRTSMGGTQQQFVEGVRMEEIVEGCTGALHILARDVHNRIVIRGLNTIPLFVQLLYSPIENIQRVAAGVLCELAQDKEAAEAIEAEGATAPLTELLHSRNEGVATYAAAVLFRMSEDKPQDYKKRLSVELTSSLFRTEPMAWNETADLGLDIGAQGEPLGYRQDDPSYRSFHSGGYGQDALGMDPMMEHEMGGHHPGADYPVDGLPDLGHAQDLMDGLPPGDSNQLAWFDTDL

T2: B-cat-Halo (UniProt P35222 1-781)
T2 sequence (looked up): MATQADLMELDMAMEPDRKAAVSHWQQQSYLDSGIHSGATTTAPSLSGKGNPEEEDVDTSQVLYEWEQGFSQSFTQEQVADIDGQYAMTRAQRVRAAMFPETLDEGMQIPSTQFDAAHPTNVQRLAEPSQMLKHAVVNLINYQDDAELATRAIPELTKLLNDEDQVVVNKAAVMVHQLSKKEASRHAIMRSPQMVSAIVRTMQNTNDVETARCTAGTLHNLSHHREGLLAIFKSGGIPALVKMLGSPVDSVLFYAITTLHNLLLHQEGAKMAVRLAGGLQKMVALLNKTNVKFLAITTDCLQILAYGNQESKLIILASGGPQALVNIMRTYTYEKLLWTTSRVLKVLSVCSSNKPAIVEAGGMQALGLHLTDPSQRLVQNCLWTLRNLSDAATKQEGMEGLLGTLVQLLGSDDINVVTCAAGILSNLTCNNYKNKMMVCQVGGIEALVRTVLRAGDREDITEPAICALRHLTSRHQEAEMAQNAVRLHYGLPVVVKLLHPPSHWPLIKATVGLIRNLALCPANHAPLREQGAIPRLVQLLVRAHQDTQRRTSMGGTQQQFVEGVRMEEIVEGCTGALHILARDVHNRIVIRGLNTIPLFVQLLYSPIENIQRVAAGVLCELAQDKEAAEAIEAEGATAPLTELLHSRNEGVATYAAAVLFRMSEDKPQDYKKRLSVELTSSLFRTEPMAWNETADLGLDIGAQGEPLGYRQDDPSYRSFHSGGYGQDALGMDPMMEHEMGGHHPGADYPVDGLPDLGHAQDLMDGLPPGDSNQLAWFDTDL

T3: full-length beta-Catenin (Uniprot ID P35222) (Homo sapiens (Human), UniProt P35222 2-781)
T3 construct: No tag is stated for the FP assay; also called bCat; B-Catenin
T3 sequence: T1 sequence (looked up)

B1: I-1794 (peptide)
peptide: Ac-[αAllylPro]D[tBuAla][B5(3)]DHAAF[hSer][PyrS2″][3Thi][Bta]Q-NH2
modifications: staple 1-4, 4-11; not fully specified; printed as Ac-PL3-Asp-Npg-B5-Asp-His-Ala-Ala-Phe-Hse-PyrS2-3Thi-BztA-Gln-NH2
B2: I-494 (peptide)
peptide: XDAXDEAAFQXFXQ
modifications: not fully specified; Ac-PL3-Asp-Ala-B5-Asp-Glu-Ala-Ala-Phe-Gln-S8-Phe-BztA-DGIn-NH2 (so in the source); D-Gln at 14); N-terminal acetyl, C-terminal amide; PL3(1)-B5(4) and B5(4)-S8(11) stapled by olefin metathesis; BztA at 13
notes: Stapled (stitched) peptide composition
B3: I-491 (peptide)
peptide: Ac-[αAllylPro]DA[B5(17)]DEAAFQ[S8]F[Bta][hSer]-NH2
modifications: staple 1-4, 4-11; also: earlier eluting HPLC peak, E/Z not assigned
notes: Stapled peptide; this is the earlier eluting HPLC peak (staple isomer composition)
B4: I-1793 (peptide)
peptide: Ac-[αAllylPro]D[tBuAla][B5(19)]DHAAF[hSer][PyrS2][3Thi][Bta]Q-NH2
modifications: staple 1-4, 4-11; not fully specified; printed as Ac-PL3-Asp-Npg-B5-Asp-His-Ala-Ala-Phe-Hse-PyrS2-3Thi-BztA-Gln-NH2

Experiments:
B-cat-Halo [1] = biological target: T1, B-cat-Halo; test: cell-based or functional assay
B-cat-Halo [2] = biological target: T2, B-cat-Halo; test: cell-based or functional assay
[3] = biological target: T3, full-length beta-Catenin (Uniprot ID …); test: fluorescence polarization competition; full-length beta-catenin with 5FAM-TCF4(10-53) probe as competitor
Description: The plate was incubated protected from light for 60 minutes at 20° C. prior to read. Reads were performed on a CLARIOstar plate reader (BMG Labtech) in duplicate, and data were fitted to a 1:1 binding model with hill slope using an in-house script. All provided concentrations are final concentrations.

| Binder | NanoBRET Abs IC50 (B-cat-Halo [1]) | also measured |
| --- | --- | --- |
| Ac-[αAllylPro]D[tBuAla][B5(19)]D[Phe(F5)]AAF[hSer][PyrS2][3Thi][Bta]Q-NH2 (staple 1-4, 4-11) [I-1791] | > 20 µM |  |
| Ac-[αAllylPro]D[tBuAla][B5(4)]D[TfeGA]AAFL[PyrS2″][3Thi][Bta]T-NH2 (staple 1-4, 4-11; also: -CH=CH- in each staple reduced to -CH2-CH2-) [I-1716] |  | NanoBRET Abs IC50 (B-cat-Halo [2]): 21.7 µM |
| Ac-[αAllylPro]D[Nle][B5(19)]D[TfeGA]AAFL[PyrS2][3Thi][Bta]Q-NH2 (staple 1-4, 4-11) [I-1777] | 8.7 µM |  |
| Ac-[αAllylPro]D[tBuAla][B5(3)]DHAAFL[PyrS2(4)][3Thi][Bta]Q-NH2 (staple 1-4, 4-11; not fully specified; reading uncertain) [I-1795] | 22.8 µM |  |
| Ac-[αAllylPro]D[tBuAla][B5(19)]D[hTyr]AAF[hSer][PyrS2][3Thi][Bta]Q-NH2 (staple 1-4, 4-11) [I-1786] | > 20 µM |  |
| B1 | 37.7 µM |  |
| Ac-[αAllylPro][AspSH][tBuAla][B5]DDAAFN[PyrS2][Phe(2-Cl)][Bta]Q-NH2 (staple 1-4, 4-11; not fully specified) [I-1721] |  | NanoBRET Abs IC50 (B-cat-Halo [2]): > 20 µM |
| Ac-[αAllylPro]D[tBuAla][B5(19)]DWAAFN[PyrS2][3Thi][Bta]Q-NH2 (staple 1-4, 4-11) [I-1788] | 33.9 µM |  |
| B2 |  | IC50 [3]: 0.082 µM |
| B3 |  | IC50 [3]: 0.153 µM |
| Ac-[αAllylPro]DT[B5(29)]DEAAFQ[S8]F[Bta]Q-NH2 (staple 1-4, 4-11, Stapled (stitched) peptide composition) [I-477] |  | IC50 [3]: 0.119 µM |
| Ac-[αAllylPro]D[tBuAla][B5(19)]D[Phe(F5)]AAFN[PyrS2][3Thi][Bta]Q-NH2 (staple 1-4, 4-11) [I-1790] | 34.4 µM |  |
| B4 | > 20 µM |  |
| Ac-[αAllylPro]DI[B5(29)]DEAAFN[S8]F[Bta]H-NH2 (staple 1-4, 4-11, Stapled (stitched) peptide composition) [I-472] |  | IC50 [3]: 0.062 µM |
